In assay [1] the target is T1, human TGFbR1 ECD-133-myc(His)6 (human).
T1 chain: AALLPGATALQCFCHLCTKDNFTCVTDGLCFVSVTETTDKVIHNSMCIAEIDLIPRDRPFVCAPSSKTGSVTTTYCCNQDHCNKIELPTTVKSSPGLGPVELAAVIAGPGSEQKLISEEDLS
The assay is described as follows: BLI. For orientation: Biolayer interferometry detects binding as a change in optical thickness at a sensor tip.

Assay [2] deals with T2, murine TGFbR1 ECD-133-myc(His)6 (mouse, UniProt Q64729).
T2 chain: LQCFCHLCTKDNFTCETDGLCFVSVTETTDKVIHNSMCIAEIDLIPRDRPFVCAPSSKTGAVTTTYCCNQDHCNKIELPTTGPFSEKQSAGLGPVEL
The assay is described as follows: BLI.

Assay [3] has as its target T1, human TGFbR1 ECD-133-myc(His)6. Nature of the assay: SPR.
Assay [4] deals with T3, human TGFbR1 ECD-133-huFc (human).
T3 chain: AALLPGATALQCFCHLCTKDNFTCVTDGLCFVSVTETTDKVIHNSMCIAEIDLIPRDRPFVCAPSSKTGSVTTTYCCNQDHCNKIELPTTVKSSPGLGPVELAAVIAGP
Nature of the assay: BLI.

In assay [5] the target is T1, human TGFbR1 ECD-133-myc(His)6. Nature of the assay: BLI.
For another assay, the target named is T4, TGFbR1 ECD G132A (human).
T4 chain: T3 chain with G108A
Nature of the assay: ELISA.

Assay [6] concerns the target T1, human TGFbR1 ECD-133-myc(His)6. Nature of the assay: ELISA.
The target of a further assay is T5, TGFbR1 ECD V129G (human).
T5 chain: T3 chain with V105G
Nature of the assay: ELISA. For orientation: In an ELISA, binding on a coated surface is turned into a signal by an enzyme label.

Another assay has as its target T6, TGFbR1 ECD P133A (human).
T6 chain: T3 chain with P109A
Nature of the assay: ELISA.

The target of assay [7] is T7, human TGFbR1 ECD 33-125-myc(His)6 (human).
T7 chain: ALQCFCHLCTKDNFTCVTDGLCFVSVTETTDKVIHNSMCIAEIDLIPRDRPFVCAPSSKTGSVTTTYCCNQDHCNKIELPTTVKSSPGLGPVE
Nature of the assay: ELISA.

For the next assay, the target named is T8, TGFbR1 ECD I130G (human).
T8 chain: T3 chain with I106G
Nature of the assay: ELISA.

A further assay addresses T9, TGFbR1 ECD L126A (human).
T9 chain: T3 chain with L102A
The assay is described as follows: ELISA.

Assay [8] addresses T10, endogenous TGFbR1 on cells (human).
T10 chain: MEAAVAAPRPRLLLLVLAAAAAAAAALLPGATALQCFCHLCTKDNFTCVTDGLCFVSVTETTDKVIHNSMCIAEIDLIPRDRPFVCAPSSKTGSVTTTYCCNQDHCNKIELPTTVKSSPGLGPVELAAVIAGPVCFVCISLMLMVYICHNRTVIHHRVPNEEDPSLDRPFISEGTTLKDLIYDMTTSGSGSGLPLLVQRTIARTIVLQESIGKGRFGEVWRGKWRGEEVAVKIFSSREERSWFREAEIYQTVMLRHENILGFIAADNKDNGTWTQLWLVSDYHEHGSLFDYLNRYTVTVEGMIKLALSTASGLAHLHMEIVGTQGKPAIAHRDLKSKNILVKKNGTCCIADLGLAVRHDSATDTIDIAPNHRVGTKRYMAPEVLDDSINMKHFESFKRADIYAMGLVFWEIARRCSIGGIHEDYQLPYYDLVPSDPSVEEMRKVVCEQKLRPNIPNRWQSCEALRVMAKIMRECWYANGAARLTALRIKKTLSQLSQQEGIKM
The assay is described as follows: FACS, RWPE cells.

The target in assay [9] is T10, endogenous TGFbR1 on cells. Nature of the assay: FACS, PC-3U cells. (In general: In flow cytometry, cells or beads pass a laser one at a time.)
For assay [10], the target named is T1, human TGFbR1 ECD-133-myc(His)6. Nature of the assay: SPR, biotinylated mAb.

Residue numbers refer to the chain shown, from its start. “And” between values parts separate entries of the source, which are not always exact repeats. Equal values may be shown once.

Broadly, the Kd is the equilibrium constant for the complex coming apart. The IC50 is the concentration that gives 50% inhibition.

B1: mAb #19 murine chimeric IgG1 (antibody, V domains shown)
VH: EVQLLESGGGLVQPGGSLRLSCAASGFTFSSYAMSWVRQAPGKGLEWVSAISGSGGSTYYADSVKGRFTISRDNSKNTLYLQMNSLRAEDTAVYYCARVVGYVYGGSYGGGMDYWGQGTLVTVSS
VL: DIQMTQSPSSLSASVGDRVTITCRASQSISSYLNWYQQKPGKAPKLLIYAASSLQSGVPSRFSGSGSGTDFTLTISSLQPEDFATYYCQQGYGPLTFGQGTKLEIK
As for B1, the Kd in [1] was 3.74 nM; in [2], 18 nM; in [3], 5.6 nM and 6.5 nM; in assay [4] it was 13 nM; in [5] it was 3.7 nM; in assay [8] it was 7.81 nM. Further, the Kd was 10.7 nM in assay [9]; 2.5 nM and 2.3 nM and 1.8 nM in assay [10]. The binding result (with TGFbR1 ECD G132A; in the assay with TGFbR1 ECD V129G; in the assay with TGFbR1 ECD P133A; in assay [7]; in the assay with TGFbR1 ECD I130G; with TGFbR1 ECD L126A) was “no binding” each time. This molecule also displayed a half-inhibitory concentration (IC50) in assay [6] of 0.104 nM.
